Laboratory results: patent US20220185874A1 (ROCHE DIAGNOSTICS OPERATIONS, published 2022)

How the values were obtained:
human cardiac troponin T [1] = target: T1, human cardiac troponin T (human, UniProt P45379 2-298); assay: SPR (Biacore 8K), 37 C, Fab captured from E. coli lysate by anti-mouse F(ab')2, recombinant human TnT as analyte
T1 construct: Analyte in SPR was 'Recombinant human TnT (Roche, 37 kDa)'; also called cTnT; TnT
Description: Detailed kinetic investigations were performed at 37° C. on a GE Healthcare 8k instrument. A Biacore CM-5 series S sensor was mounted into the instrument and was preconditioned according to the manufacturer's instructions. The system buffer was HBS-ET (10 mM HEPES (pH 7.4), 150 mM NaCl, 1 mM EDTA, 0.05% (w/v) Tween® 20). The sample buffer was the system buffer supplemented with 1 mg/ml CMD (Carboxymethyldextran, Fluka). In one embodiment an anti-murine Fab fragment capture system was established on the CM5 biosensor. The rabbit polyclonal pAb anti M-IgG, F(ab′)₂ fragment (Cat. No. 315-005-047, Jackson Immuno Research) was immobilized according to the manufacturer's instructions using NHS/EDC chemistry. At 5 μl/min, 30 μg/ml RAMF(ab′)₂ in 10 mM sodium acetate buffer (pH 5.0) were immobilized at 10.000 RU on each flow cell. The sensor was subsequently saturated with 1 M ethanolamine pH 8.5. […] Recombinant human TnT (Roche, 37 kDa) was diluted in sample buffer at 30 nM and a concentration series was produced with 0 nM, 30 nM, 10 nM, 3.3 nM, 1.1 nM, 0.37 nM TnT concentration. The analyte concentration series were injected at 80 μl/min for 3 min association phase and the dissociation phase was monitored for 5 min. At the end of the analyte association phase a report point, “binding late” (BL) in response units (RU) was monitored. After each cycle of kinetic rates determination, the capture system was regenerated by a 15 seconds injection of 10-fold concentrated HBS-EP buffer followed by two 1 min injections of 100 mM HCl at 20 μl/min.

human cardiac troponin T [2] = target: T1, human cardiac troponin T; assay: Elecsys ECL sandwich immunoassay, calibrator Cal1 (recTnT), reference: biotinylated wild type Fab of MAB11-7
Description: (§1) The antibody Fab fragment mAb<TnT>rM-11-7(A102W)-Fab(IgG1)-Qtag was produced as a biotinylated Fab fragment, i.e., mAb<TnT>rM-11-7(A102W)-Fab(IgG1)-Qtag-Bi according to Example 7 and was tested in a sandwich immuno assay (see FIG. 6). The Fab fragment mAb<TnT>rM-11-7(A102W)-Fab(IgG1)-Qtag-Bi was compared to the biotinylated wild type Fab-fragment of MAB11-7 (i.e. comprising a CDR3 of SEQ ID NO: 16) as comprised in the commercially available Roche Elecsys® assay, catalogue number 05092744190 (Roche Diagnostics GmbH, Mannheim, Germany). These biotinylated reagents were used as reagent 1 (RI) in the corresponding assay protocol. The ruthenylated detection antibody was the one comprised in the Roche Elecsys® assay, catalogue number 05092744190 (Roche Diagnostics GmbH, Mannheim, Germany). The ruthenylated detection antibody corresponds to the Elecsys® R2 reagent.
(§2) The assay follows assay protocol 2 of the cobas e analyzers, where sample, R1 and R2 are mixed in a first step for 9 min incubation, then the streptavidin coated magnetic beads are added in a second step for another 9 min incubation. […]
(§3) Elecsys® streptavidin-coated magnetic beads were always used in combination with one of the RI and R2 reagent bottles. Samples measured included sample diluent (Diluent Universal=buffer blank,) and the TnT Elecsys® assay commercial calibrators (Call ([…] recTnT) and Cal2 ([…] recTnT)).

human cardiac troponin T [3] = target: T1, human cardiac troponin T; assay: Elecsys ECL sandwich immunoassay, calibrator Cal2 (recTnT), reference: biotinylated wild type Fab of MAB11-7
Description: as §1, §2, §3

human cardiac troponin T [4] = target: T1, human cardiac troponin T; assay: Elecsys ECL sandwich immunoassay, biotinylated Fab as capture reagent R1, ruthenylated commercial detection antibody; reference: biotinylated wild type Fab of MAB11-7
Description: as §1
Measurements were performed on a Cobas E170 Module using the Troponin T hs assay protocol with a blank control (Diluent Universal, Id. 11732277122, Diluent Multi Assay, Id. 03609987170, Roche Diagnostics GmbH, Mannheim, Germany), Call and Cal2 from Troponin T hs CalSet (Id. 05092752190, Roche Diagnostics GmbH, Mannheim, Germany) using the Troponin T hs assay specifications. […]

Row | Kd (human cardiac troponin T [1]) [nM] | koff (human cardiac troponin T [1]) [s⁻¹] | kon (human cardiac troponin T [1]) [M⁻¹ s⁻¹] | t½ [min] (complex half-life) (human cardiac troponin T [1]) | fold increase of Cal-1 signal against parental (human cardiac troponin T [2]) [fold] | fold increase of Cal-2 signal against parental (human cardiac troponin T [3]) [fold] | fold increase in sensitivity (signal to noise) against parental (human cardiac troponin T [4]) [fold] | Binder
1 | 2500 | 0.042 | 16000 | 0.3 | – | – | – | mAb<TnT>rM-11-7 Fab A102R (Fab, V domains shown, Murine CH1 and CL, E. coli periplasmic lysate) VH: QIQLVQSGPELKKPGETVKISCKASGYTFTDFSMHWVKQAPGKGLKWMGWINTETGEPTYADDFKGRFAFSLETSATTAYLQINNLKNEDTATYFCVRSHRMDYWGQGTSVTVSS VL: not shown
2 | 17 | 0.056 | 3.3e+06 | 0.2 | – | – | – | mAb<TnT>rM-11-7 Fab A102N (Fab, V domains shown, Murine CH1 and CL, E. coli periplasmic lysate) VH: QIQLVQSGPELKKPGETVKISCKASGYTFTDFSMHWVKQAPGKGLKWMGWINTETGEPTYADDFKGRFAFSLETSATTAYLQINNLKNEDTATYFCVRSHNMDYWGQGTSVTVSS VL: not shown
3 | – | – | – | – | 1.7 | 1.8 | ~2 | mAb<TnT>rM-11-7(A102W)-Fab(IgG1)-Qtag-Bi (Fab, V domains shown, Murine Fab (IgG1) with a Qtag, produced in HEK FreeStyle 293-F cells, site-directed conjugated to biotin with Kutzneria albida transglutaminase; also called maturated biotinylated mAb<TnT>rM-11-7(A102W)-Fab) VH: QIQLVQSGPELKKPGETVKISCKASGYTFTDFSMHWVKQAPGKGLKWMGWINTETGEPTYADDFKGRFAFSLETSATTAYLQINNLKNEDTATYFCVRSHWMDYWGQGTSVTVSS VL: not shown
4 | 5 | 0.0033 | 710000 | 3 | – | – | – | mAb<TnT>rM-11-7 Fab A102Y (Fab, V domains shown, Murine CH1 and CL, E. coli periplasmic lysate) VH: QIQLVQSGPELKKPGETVKISCKASGYTFTDFSMHWVKQAPGKGLKWMGWINTETGEPTYADDFKGRFAFSLETSATTAYLQINNLKNEDTATYFCVRSHYMDYWGQGTSVTVSS VL: not shown
5 | < 0.01 | < 1e-05 | 1.1e+06 | > 1160 | – | – | – | mAb<TnT>rM-11-7 Fab A102W (Fab, V domains shown, Murine CH1 and CL, E. coli periplasmic lysate) VH: QIQLVQSGPELKKPGETVKISCKASGYTFTDFSMHWVKQAPGKGLKWMGWINTETGEPTYADDFKGRFAFSLETSATTAYLQINNLKNEDTATYFCVRSHWMDYWGQGTSVTVSS VL: not shown

The next lines start with the binder.

Row | Binder | Kd (human cardiac troponin T [1]) [nM] | koff (human cardiac troponin T [1]) [s⁻¹] | kon (human cardiac troponin T [1]) [M⁻¹ s⁻¹] | t½ [min] (complex half-life) (human cardiac troponin T [1]) | fold increase of Cal-1 signal against parental (human cardiac troponin T [2]) [fold] | fold increase of Cal-2 signal against parental (human cardiac troponin T [3]) [fold] | fold increase in sensitivity (signal to noise) against parental (human cardiac troponin T [4]) [fold]
6 | mAb<TnT>rM-11-7 Fab A102D (Fab, V domains shown, Murine CH1 and CL, E. coli periplasmic lysate) VH: QIQLVQSGPELKKPGETVKISCKASGYTFTDFSMHWVKQAPGKGLKWMGWINTETGEPTYADDFKGRFAFSLETSATTAYLQINNLKNEDTATYFCVRSHDMDYWGQGTSVTVSS VL: not shown | 15 | 0.029 | 1.9e+06 | 0.4 | – | – | –
7 | mAb<TnT>rM-11-7 Fab A102E (Fab, V domains shown, Murine CH1 and CL, E. coli periplasmic lysate) VH: QIQLVQSGPELKKPGETVKISCKASGYTFTDFSMHWVKQAPGKGLKWMGWINTETGEPTYADDFKGRFAFSLETSATTAYLQINNLKNEDTATYFCVRSHEMDYWGQGTSVTVSS VL: not shown | 9 | 0.0098 | 1.1e+06 | 1 | – | – | –
8 | mAb<TnT>rM-11-7 Fab A102I (Fab, V domains shown, Murine CH1 and CL, E. coli periplasmic lysate) VH: QIQLVQSGPELKKPGETVKISCKASGYTFTDFSMHWVKQAPGKGLKWMGWINTETGEPTYADDFKGRFAFSLETSATTAYLQINNLKNEDTATYFCVRSHIMDYWGQGTSVTVSS VL: not shown | 18 | 0.032 | 1.7e+06 | 0.4 | – | – | –
9 | mAb<TnT>rM-11-7 Fab A102F (Fab, V domains shown, Murine CH1 and CL, E. coli periplasmic lysate) VH: QIQLVQSGPELKKPGETVKISCKASGYTFTDFSMHWVKQAPGKGLKWMGWINTETGEPTYADDFKGRFAFSLETSATTAYLQINNLKNEDTATYFCVRSHFMDYWGQGTSVTVSS VL: not shown | 1 | 0.0012 | 900000 | 10 | – | – | –
10 | mAb<TnT>rM-11-7 Fab A102L (Fab, V domains shown, Murine CH1 and CL, E. coli periplasmic lysate) VH: QIQLVQSGPELKKPGETVKISCKASGYTFTDFSMHWVKQAPGKGLKWMGWINTETGEPTYADDFKGRFAFSLETSATTAYLQINNLKNEDTATYFCVRSHLMDYWGQGTSVTVSS VL: not shown | 13 | 0.009 | 710000 | 1 | – | – | –
11 | mAb<TnT>rM-11-7 Fab A102H (Fab, V domains shown, Murine CH1 and CL, E. coli periplasmic lysate) VH: QIQLVQSGPELKKPGETVKISCKASGYTFTDFSMHWVKQAPGKGLKWMGWINTETGEPTYADDFKGRFAFSLETSATTAYLQINNLKNEDTATYFCVRSHHMDYWGQGTSVTVSS VL: not shown | 8 | 0.0069 | 830000 | 2 | – | – | –
